What was measured:
[1] = target: αN-catenin actin-binding domain with the helix-1 mutation (αNcat-ABD-H1) (mouse) (UniProt Q61301); experiment: crystal structure; αNcat-ABD-H1 crystals in forms A (2.2 Å) and B (2.8 Å), grown at 277 K by vapor diffusion; molecular replacement with PDB 4K1O
[2] = target: αE-catenin actin-binding domain, wild type (αEcat-ABD-WT) (mouse) (UniProt P26231); experiment: SEC-MALS; elution profiles at 3 mg/ml to 30 mg/ml; MALS of the dimer peak at 30 mg/ml; dimer to monomers; Superdex-200 Increase 10/300 GL; 20 mM Tris-HCl pH 7.0, 100 mM NaCl

Row | stoichiometry N [1] | stoichiometry N [2] | Substance
1 | 2 | – | αN-catenin actin-binding domain with the helix-1 mutation (αNcat-ABD-H1) (from UniProt Q61301-2 651-905) (domain or fragment)
2 | – | 2 | αE-catenin actin-binding domain, wild type (αEcat-ABD-WT) (from UniProt P26231 652-906) (domain or fragment)

Source: publication PMC6269467
